The results in this text go back to paper PMC10983868 (bioRxiv, 2025).

Assay [1] addresses Clostridium difficile toxin B (TcdB) (Clostridium difficile, UniProt P18177). Briefly: flow cytometry on cells. In general terms: A flow cytometer gives signals particle by particle.
Assay [2] has as its target soluble biotinylated TcdB fragment (1401-1616) (Clostridioides difficile VP10463, UniProt P18177, biotin). Put plainly: flow cytometry on cells.

Sequence of Clostridium difficile toxin B (TcdB) (P18177 whole entry, the tested form may be a part): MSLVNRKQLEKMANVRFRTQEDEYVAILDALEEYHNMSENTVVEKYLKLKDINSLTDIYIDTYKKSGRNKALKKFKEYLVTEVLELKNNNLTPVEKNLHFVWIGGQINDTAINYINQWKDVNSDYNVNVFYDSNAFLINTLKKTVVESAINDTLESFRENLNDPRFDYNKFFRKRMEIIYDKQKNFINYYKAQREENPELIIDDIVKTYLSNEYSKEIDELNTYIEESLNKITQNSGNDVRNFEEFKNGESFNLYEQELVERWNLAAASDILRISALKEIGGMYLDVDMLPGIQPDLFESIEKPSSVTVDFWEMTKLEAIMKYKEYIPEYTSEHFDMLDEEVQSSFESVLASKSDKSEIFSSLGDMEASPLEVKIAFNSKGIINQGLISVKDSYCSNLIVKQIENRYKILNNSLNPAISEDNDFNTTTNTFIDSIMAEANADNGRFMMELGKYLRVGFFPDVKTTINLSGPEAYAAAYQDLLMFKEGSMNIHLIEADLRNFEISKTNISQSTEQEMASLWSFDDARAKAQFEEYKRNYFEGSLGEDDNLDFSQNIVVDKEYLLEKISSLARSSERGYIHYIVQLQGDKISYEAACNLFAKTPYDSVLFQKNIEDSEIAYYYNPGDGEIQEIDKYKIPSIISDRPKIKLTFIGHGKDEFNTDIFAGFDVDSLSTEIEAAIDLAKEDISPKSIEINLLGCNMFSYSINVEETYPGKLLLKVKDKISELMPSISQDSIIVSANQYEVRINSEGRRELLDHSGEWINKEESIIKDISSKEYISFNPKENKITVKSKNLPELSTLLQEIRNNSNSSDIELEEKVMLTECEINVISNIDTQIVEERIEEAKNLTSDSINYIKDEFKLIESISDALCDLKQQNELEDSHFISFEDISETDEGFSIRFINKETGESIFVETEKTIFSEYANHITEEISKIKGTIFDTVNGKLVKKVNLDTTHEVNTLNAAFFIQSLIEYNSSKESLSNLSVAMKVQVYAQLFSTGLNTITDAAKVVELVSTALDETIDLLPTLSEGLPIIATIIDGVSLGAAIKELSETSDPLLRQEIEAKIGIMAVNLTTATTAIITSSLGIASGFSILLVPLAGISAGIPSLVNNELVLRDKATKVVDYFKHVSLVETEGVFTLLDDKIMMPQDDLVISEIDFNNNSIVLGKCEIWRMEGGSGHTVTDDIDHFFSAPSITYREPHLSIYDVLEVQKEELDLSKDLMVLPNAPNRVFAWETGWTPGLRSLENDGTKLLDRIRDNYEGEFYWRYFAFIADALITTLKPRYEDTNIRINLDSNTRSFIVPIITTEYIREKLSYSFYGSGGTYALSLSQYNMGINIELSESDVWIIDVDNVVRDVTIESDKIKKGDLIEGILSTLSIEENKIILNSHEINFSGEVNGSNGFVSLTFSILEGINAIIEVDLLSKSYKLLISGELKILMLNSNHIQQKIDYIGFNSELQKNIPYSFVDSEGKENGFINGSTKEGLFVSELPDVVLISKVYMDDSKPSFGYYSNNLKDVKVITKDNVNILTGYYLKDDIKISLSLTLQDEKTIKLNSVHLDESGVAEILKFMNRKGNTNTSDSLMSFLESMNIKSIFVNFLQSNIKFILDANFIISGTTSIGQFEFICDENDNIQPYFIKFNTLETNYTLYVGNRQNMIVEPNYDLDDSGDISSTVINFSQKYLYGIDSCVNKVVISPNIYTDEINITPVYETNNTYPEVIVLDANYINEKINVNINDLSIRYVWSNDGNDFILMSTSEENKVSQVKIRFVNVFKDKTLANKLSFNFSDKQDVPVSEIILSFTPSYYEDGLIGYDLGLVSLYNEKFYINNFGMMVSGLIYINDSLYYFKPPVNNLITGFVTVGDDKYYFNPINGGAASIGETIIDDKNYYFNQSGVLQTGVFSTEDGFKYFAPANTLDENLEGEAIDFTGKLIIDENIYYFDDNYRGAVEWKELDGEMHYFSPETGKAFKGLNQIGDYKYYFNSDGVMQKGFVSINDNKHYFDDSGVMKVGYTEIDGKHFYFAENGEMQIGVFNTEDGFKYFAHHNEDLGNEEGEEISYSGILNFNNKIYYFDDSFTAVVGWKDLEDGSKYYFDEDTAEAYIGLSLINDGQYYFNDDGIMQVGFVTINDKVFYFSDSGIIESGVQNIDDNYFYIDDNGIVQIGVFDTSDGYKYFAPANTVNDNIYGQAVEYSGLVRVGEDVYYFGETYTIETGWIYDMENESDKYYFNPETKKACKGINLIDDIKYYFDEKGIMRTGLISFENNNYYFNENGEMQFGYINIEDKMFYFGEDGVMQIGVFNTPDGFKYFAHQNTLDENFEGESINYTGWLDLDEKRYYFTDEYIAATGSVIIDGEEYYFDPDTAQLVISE
Sequence of soluble biotinylated TcdB fragment (1401-1616) (P18177 1401-1616): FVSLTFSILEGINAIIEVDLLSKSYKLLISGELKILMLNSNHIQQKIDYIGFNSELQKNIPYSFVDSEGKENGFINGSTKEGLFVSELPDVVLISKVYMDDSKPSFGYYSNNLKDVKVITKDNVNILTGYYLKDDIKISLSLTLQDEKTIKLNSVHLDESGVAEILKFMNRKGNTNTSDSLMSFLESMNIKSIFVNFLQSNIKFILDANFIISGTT

B1: scFv4-C-Myc construct displayed on yeast (scFv, V domains shown)
VH: EVQLVESGGGLVQPGGSLRLSCAASGFDLKEKYIHWVRQAPGKGLEWVARINVKTGSTRYADSVKGRFTISADTSKNTAYLQMNSLRAEDTAVYYCSRENRFGALTVWGQGTLVTVSS
VL: DIQMTQSPSSLSASVGDRVTITCTTSSYVPMLVSWYQQKPGKAPKLLIYSSVIRAPGVPSRFSGSRSGTDFTLTISSLQPEDFATYYCSVLQKDGNLVFGQGTKVEIK
For B1, the binding result in assay [1] and in assay [2] was “binds” each time.
